These results are taken from the nanobody polyreactivity screen of Harvey et al. (2022).

This data set in a line: yeast display, Sf9 membrane polyspecificity reagent, FACS + sequencing; frameworks hold sequencing errors. Summed up:
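In a synthetic yeast display library (Saccharomyces cerevisiae BJ5465), nanobody expression was induced with galactose for 36–48 hours. FACS gates were set low and high (top ~1%) using anti-HA fluorescence for expression and streptavidin fluorescence for binding of the Sf9 membrane reagent. Each polyreactivity label is drawn from the gate of origin.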
Turning to “QVQLVESGGGLVQAGGSLRLSCAASGSILKSYAMGWYRQAPGKERELVAAITYRDGSTYYADSVKGRFTISRDNAKNTVYLQMNSLKPEDTAVYYCAAEPSWWNVFYPGYNYWGQGTQVTVSA”, the “polyreactivity (PSR sort gate)” value is recorded as “high polyreactivity”.

As for “QVQLVESGGGLVQAGGSLRLSCAASGSIFFIYDMGWYRQAPGKERELVADITSGGGSTFYADSVKGRFTISRDNAKNTVYLQMNSLKPEDTAVYYCATDDHDQPGGQLYITEVNYWGQGTQVTVSS”, the “polyreactivity (PSR sort gate)” value was “low polyreactivity”. “QVQLVESGGGLVQAGGSLRLSCAASGFIFRDNAMGWYRQAPGKERELVAAISERGGRTYYADSVKGRFTISRDNAKNTVYLQMNSLKPEDTAVYYCAAEDIANFYYWGQGTQVTVSS”: the “polyreactivity (PSR sort gate)” value is “high polyreactivity”.

“QVQLVESAGGLVQAGGSLRLSCAASGFIFDVYAMGWYRQAPGKERELVAAISVSSTNYADSVKGRFTISRDNAKNTVYLQMNSLKPEDTAVYYCAADTYTYFLASYLYGQYDYWGQGTQVTVSS”: the “polyreactivity (PSR sort gate)” value is on record as “low polyreactivity”. The value for “KVQLVESGGGLVQAGGSLRLSCAASGFTFYGNAMGWYRQAPGKERELVATIRYRGGRTYYADSVKGRFTISRDNAKNTVYLQMNSLKPEDTAVYYCAARSVFLMWGQGTQVTVSS” was “high polyreactivity”.

Consider “QVQLVESGGGLVQAGGSLRLSCAASGSNFYRNAMGWYRQAPGKERELVAGIRWTGTRTYYADSVKGRFTISRDNAKNTVYLQMNSLKPEDTAVYYCNAVYSLSNAVDGDYWGQVTQVTVSS”, for which the “polyreactivity (PSR sort gate)” value is on record as “high polyreactivity”. Under “QVQLVESGGCLVQAGGSIRLSCAASGSTFDINAMGWYRQAPGKERELVASITFSGGSTYYADSVKGRFTISRDNAKNTGYLQMNSLKPEDTAVYYCAADSSGEYPGGYWGQGTQVTVSS” stands “low polyreactivity”; under “QVQLVESGGGLVQAGGSLRLSCAASGSTFDSYRMGWYRQAPGKERELVASISSRGGSTYYADSVKGRFTISRDNAKNTVSLQMNSLKPEATAVYYCAADWLSWFHGYGMYYWGQGTQVTVSS”, “low polyreactivity”. As to “QVQLVESGGGLVQAGGSLRLSCAASGRTFSYYAMGWYRQAPGKERELVAAISSGGSTYYADSVKGRFTISRDNAKNTVYLQMNRLKPEDTAVYYCAKEYKQALGHVSFDYWGQGTQVTVSS”, the “polyreactivity (PSR sort gate)” value is reported as “low polyreactivity”. In the case of “QVQLVESGGGLVQAGGSLGLSCAASGSIFSRNTMGWYRPARGKERELVAAITSSGGNTYYADSVKGRFTISRDNAKNTVYLQMNSLKPDDTAVYYCAADVAQVGYQVGDSEIYPGYEDWGQGSQVTVSS”, the “polyreactivity (PSR sort gate)” value is on record as “low polyreactivity”.

As for “QVQLVESGGGLVHAGGSLRLSCAASGFTFYKNAMGWYRQAPGKERELVAAISADGGRTYYADSVKGRFTISRDNAKNTVYLQMNSLKPEDTGVYYCNARARRYTRLRWYAYVSDNDYWGQGTQVTVSS”, the “polyreactivity (PSR sort gate)” value is “high polyreactivity”.

“QVQLVESGGGLVQAGGSLRLSCAASGFIFPDYAMGWYRQAPGKERELVAAISFRDGSTYYADSVKGRFTISRDNAKNTVYFQINSLKPEDTAVYYCNAGPQYDVHEYYYWGQGSQVTVSS”: the “polyreactivity (PSR sort gate)” value is reported as “low polyreactivity”.

Consider “QVQLVESGGGLVQAGGSLRLSCAASGSTFNDYAMGWYRQAPGKERELVAGITWRGTSTYYADSVKGRFTISRDNAKNTVYLQMNSLKPEDTAVYYCAADVYYLLWLWMDYWGQGTQVTVSS”, for which the “polyreactivity (PSR sort gate)” value is listed as “low polyreactivity”.

On to “QVQVVESGGGLVQAGGSLSLSCAASGGIFHSNAMGWYRQAPGKERELVAAISWNTGSTYYADSVKGRFTISRDNAKQTVYLQMNSLKPEDTAVYYCAASYRSPWLRYDYWGQGTQVTVSS”, for which the “polyreactivity (PSR sort gate)” value is “high polyreactivity”.

Consider “QVQLVESGGGLVQAGGSLRLSCAASGRTFYINAMGWYRQAPGKERELVATISRSGGDTYYADSVKGRFTISRDNAKNTVYLQMNSLKPEDTAVYYCNARQYYYRSGAYASRYLYNYWGQGTQVTVSS”, for which the “polyreactivity (PSR sort gate)” value is “high polyreactivity”.

As to “QVQLVESGGGLVQAGGSLRLSCAASGSIFNGNAMGWYRQAPGKERELVAAISRNGGSTYYADSVKGRFTISRDNAKNTVYLQMNSLKPEDTAVYYCAVRKRPHGYLAFGYWGQGTQVTVSS”, the “polyreactivity (PSR sort gate)” value is on record as “low polyreactivity”. For “QVQLVESGGGLVQAGGSLRLSCAASGSIFGKYAMGWYRQAPGKERELVAAISGRGGGTYYADSVKGRFTISRDNAKNTVYLQMNSLKPEDTAVYYCNAYYSRLRYDYWGQGTQVTVSS”, the “polyreactivity (PSR sort gate)” value is listed as “high polyreactivity”. As for “QVQLVESGGGLVQAGGSLRLSCAASGSIFSRNAKGWYRQAPGKERELVAAISRGANTYYADSVKGRLTISRDNAKNSVYLQMNSLKPEDTAVYYCAARIYKFPYTYDYWGQGTQVTVSS”, the “polyreactivity (PSR sort gate)” value is on record as “high polyreactivity”.

Turning to “QGQLVESGGGLVQAGGSLRLSCAASGSIFYINAMGWYRQAPGKERELVASISGGGGSTYYADSVKGRFTLSRDNAKNTVYLQMNSLKPEDTAVYYCNTVSRKDYDYWGQGTQVTVSS”, the “polyreactivity (PSR sort gate)” value was “high polyreactivity”.

With “QVQLEESGGGLVQAGGSLRLSCPASGRTSYGNTMGTYRQAPGKERELVATISGGGSTNYADSVKGRFTISRDNAKNTVYLQMNSLKPEDTAVYYCAARRYPFPGYRYYFWGQGTQVTVSS”, the “polyreactivity (PSR sort gate)” value is “high polyreactivity”. As to “QVELVESGGGLVQAGGSLRLSCAASGSTFDPNAMGWYRQAPGKERELVASITSRGGSTYYADSVKGRFTISRDIAKNTVYLQMNSLKPEDTADYYCAAVGGATYSWNGYSWYPWHNYWGQGTQVTVSS”, the “polyreactivity (PSR sort gate)” value is “low polyreactivity”. Under “QVQLVESGGGLVQAGGILRLSCAASGSIFGGYGMGWYRQAPGKERELVAAITSVSSTYYADSVKGRFTISRDNAMNTVYVQMNSLKPEDTAVYYCAARPYPHSAYEGDYWGRGTQVTVSS” stands “low polyreactivity”; under “QDQLVESGGGLVQAGGSLRFSCAPSGFTFTRNPLGCYRQAPGQEREFVARISSRGGSTYYADSVKGRYTISRDIAKNSVYLQMNSLTPEDTAVNYCARDPVGTNSARYNYWGQGTQVTVSS”, “high polyreactivity”; under “QVQLVESGGGLVQAGGSLRLSCAASGNTLDVNAMGWYRQAPWKERELVAAITSGGSTNYADSVKGRFTISRDNAKNTVYLQMNSLKPEDTAVYYCAKGSGVTYVNETLNTDYGYWGQGTQVTVSS”, “low polyreactivity”.

For “QVQLVESGGALVQAGGSLRLSCAASGFTFPPSARGWYRQAPGKERELVARITWSGDRTYYADSVKGRFTISRDNAKNTVYLQMNSLKPEDTAVYYCAARRLPRKERKLYYWGQGTQVTVSS”, the “polyreactivity (PSR sort gate)” value is reported as “high polyreactivity”.

On to “QVQLVESGGGLVQAGGSLRLSCAASGSTFSYYTMGWYRPAPGKERELVAAITRRGDSTYADSVKGRFTISRDNAKNTGYLQMNSLKPEATAVYYCAADASVGVSGMDYWGQGTQVTVSS”, for which the “polyreactivity (PSR sort gate)” value is on record as “low polyreactivity”. For “QVQLVESGGGLVQAGGSLRLSCAASGRIFGIYAMGWYRQAPGKERELVAAISYSGGSTYYADSVKGRFTISRDNAKNTVYLQMNSMKPEDTAVYYCNADYYASYYPYYSIRLDYWGQGTQVTVSS”, the “polyreactivity (PSR sort gate)” value is given as “low polyreactivity”.

Regarding “QVQLVESGGGLVQAGGSLRLSCAASGSIFWSNAMGWYRQSPGKEREFVASISSSGSTNYADSVKGRFTISRDNAKNTVYLQMNSLKPEDTAVYYCNADGLYSYWYFWSSAYDYWGQGTQVTVSS”, the “polyreactivity (PSR sort gate)” value was “low polyreactivity”. Under “QVQLVESGGGLVQAGGSLRLSCAASGSIFSWSAMGWYRQAPGKVRELVAGITWTGGSTYYADSVKGRFTISRDNAKNTVYLQRNSLKPEDTAVYYCNARRATYRKYTPVPFDRYDYWGQGTQVTVSS” stands “high polyreactivity”.

On to “QVQLVESGGGLVQAGGSLRLSCAASGSTYERYAMGWYRQAPGKERELVAAISAIGDSTYYADSVKGRITISRDNANNTVYLQMNSLKPEDTAVYYCAARYTRYHIGRGYYYWGQGTQVTVSS”, for which the “polyreactivity (PSR sort gate)” value is “high polyreactivity”.

“QVQLVESGGGLVQAGGSLRLSCAASGLTLTYYAMGWYRQAAGKERELVAAISSSGGSTYYADSVKGRFTISRDNAKNTVYLQMNSLKPEDTAVYYCAATRVSWTGRDDYWGQGTQVTVSS”: the “polyreactivity (PSR sort gate)” value was “high polyreactivity”. Regarding “QVQLVQSGGGLVQAGGSLRLSCAASGSIFAVYGMGWNRQAPGKERELVASISTGVSTNYADSVKGRFTISRDNAKNTVYLQRHSLKPEDTAVYYCAKTIYKSRVSYGSWGQGTQVTVSS”, the “polyreactivity (PSR sort gate)” value is on record as “low polyreactivity”. As for “QVQLVESGGGLVQAGGSLRLSCAASGSIYVNAMGWYRQAPGKERELVAVISKSGGSTYYADSVKGRFTISRDNAKNTVYLQMNSLKPEDTAVYYCATRGVSPSRPGYYWGQGTQVTVSS”, the “polyreactivity (PSR sort gate)” value is given as “high polyreactivity”. Regarding “QVQLVESGGGLVQAGGSLRLSSDASGRIFRYYSMGWYRQAPGKERELVAAITRGGYTNYADSVKGRFTISRDNAKITVYFQMNSLKQEDTAVYYCATRQSWYPRWMDYWGQGTQVTVSS”, the “polyreactivity (PSR sort gate)” value is “high polyreactivity”. For the sequence “QVQLVESGGGLVQAGGSLRLSCAASGIIFGGYTMGWYRQAPGKERELVAAISSTGASTYYADSVEGRFTISRDNAKNTVYLQMNSLKPEDTAVYYCNAKRAPWGTLYNYWGQGTQVTVSS”, the “polyreactivity (PSR sort gate)” value was “high polyreactivity”. Turning to “QVQLVESGGGLVQAGGSLRLSCAASGRIFGPYAMGWYRQAPGKERELVATITWSGVSTYYADSVKGRFTISRDNAKNTVYLQMNSLKPEDTAVYYCNAKRTGQWFLHVPVYYWGQGTQVTVSS”, the “polyreactivity (PSR sort gate)” value is reported as “low polyreactivity”. As to “QVQLVESGGALVQAGGSLRLSCAYSGLTFYGNTMGWYRQAPGKERELDAAITYSGTRTYYADSVKGRFTISRDTAKNTVYLQMNSLKPEDTAVYYCNALSYANSIDTYDYWGQVTQVTVSS”, the “polyreactivity (PSR sort gate)” value is given as “high polyreactivity”. As for “QVQLVESGGGLVQAGGSLRLSCAASGSIFRAYVMGWYRQAPGKERELVAAISRGGSTNYADSVKGRFTISRDNAKNTVYLQMNSLKPEDSAVYYCAADWYFYSMYDEVEYWGQGTQVTVSS”, the “polyreactivity (PSR sort gate)” value is on record as “low polyreactivity”.

In the case of “QVQLVDSGGGLVQAGGSLRLSCAASGSIFRRNAMGWYRQAPGKERELVAAITRSGSGTSYADSVKGRFTISLDNAKNTVYLQMNSLKPEDTAVYYCNAAYVYGDQARGGYWGQGTQVTVSS”, the “polyreactivity (PSR sort gate)” value was “high polyreactivity”. Consider “QVQLVESGGGLVQAGGSLRLICAASGTTFLSYAMGWYRQAQGKDRELVAAISWSGGRTYYAHSVKGRFTISRDNAKNTVYLQMNSLKPEDTAVYYCAAPHVPFTKHEYEYWGQGTQVTLSS”, for which the “polyreactivity (PSR sort gate)” value is “low polyreactivity”.
